Data taken from patent publication US20090099029.

T1: Bovine, dephosphorylated, Myelin Basic Protein (MBP), P02687
T1 chain: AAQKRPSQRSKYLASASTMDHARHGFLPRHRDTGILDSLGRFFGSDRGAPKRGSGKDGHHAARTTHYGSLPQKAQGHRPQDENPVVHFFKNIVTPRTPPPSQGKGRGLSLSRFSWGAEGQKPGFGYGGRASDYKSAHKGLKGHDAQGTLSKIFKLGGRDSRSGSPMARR

B1: STK22B(TSSK2) (protein)
chain: MDDATVLRKKGYIVGINLGKGSYAKVKSAYSERLKFNVAVKIIDRKKTPTDFVERFLPREMDILATVNHGSIIKTYEIFETSDGRIYIIMELGVQGDLLEFIKCQGALHEDVARKMFRQLSSAVKYCHDLDIVHRDLKCENLLLDKDFNIKLSDFGFSKRCLRDSNGRIILSKTFCGSAAYAAPEVLQSIPYQPKVYDIWSLGVILYIMVCGSMPYDDSDIRKMLRIQKEHRVDFPRSKNLTCECKDLIYRMLQPDVSQRLHIDEILSHSWLQPPKPKATSSASFKREGEGKYRAECKLDTKTGLRPDHRPDHKLGAKTQHRLLVVPENENRMEDRLAETSRAKDHHISGAEVGKAST
B2: TBK1 (protein)
chain: MQSTSNHLWLLSDILGQGATANVFRGRHKKTGDLFAIKVFNNISFLRPVDVQMREFEVLKKLNHKNIVKLFAIEEETTTRHKVLIMEFCPCGSLYTVLEEPSNAYGLPESEFLIVLRDVVGGMNHLRENGIVHRDIKPGNIMRVIGEDGQSVYKLTDFGAARELEDDEQFVSLYGTEEYLHPDMYERAVLRKDHQKKYGATVDLWSIGVTFYHAATGSLPFRPFEGPRRNKEVMYKIITGKPSGAISGVQKAENGPIDWSGDMPVSCSLSRGLQVLLTPVLANILEADQEKCWGFDQFFAETSDILHRMVIHVFSLQQMTAHKIYIHSYNTATIFHELVYKQTKIISSNQELIYEGRRLVLEPGRLAQHFPKTTEENPIFVVSREPLNTIGLIYEKISLPKVHPRYDLDGDASMAKAITGVVCYACRIASTLLLYQELMRKGIRWLIELIKDDYNETVHKKTEVVITLDFCIRNIEKTVKVYEKLMKINLEAAELGEISDIHTKLLRLSSSQGTIETSLQDIDSRLSPGGSLADAWAHQEGTHPKDRNVEKLQVLLNCMTEIYYQFKKDKAERRLAYNEEQIHKFDKQKLYYHATKAMTHFTDECVKKYEAFLNKSEEWIRKMLHLRKQLLSLTNQCFDIEEEVSKYQEYTNELQETLPQKMFTASSGIKHTMTPIYPSSNTLVEMTLGMKKLKEEMEGVVKELAENNHILERFGSLTMDGGLRNVDCL
B3: TTK (protein)
chain: MESEDLSGRELTIDSIMNKVRDIKNKFKNEDLTDELSLNKISADTTDNSGTVNQIMMMANNPEDWLSLLLKLEKNSVPLSDALLNKLIGRYSQAIEALPPDKYGQNESFARIQVRFAELKAIQEPDDARDYFQMARANCKKFAFVHISFAQFELSQGNVKKSKQLLQKAVERGAVPLEMLEIALRNLNLQKKQLLSEEEKKNLSASTVLTAQESFSGSLGHLQNRNNSCDSRGQTTKARFLYGENMPPQDAEIGYRNSLRQTNKTKQSCPFGRVPVNLLNSPDCDVKTDDSVVPCFMKRQTSRSECRDLVVPGSKPSGNDSCELRNLKSVQNSHFKEPLVSDEKSSELIITDSITLKNKTESSLLAKLEETKEYQEPEVPESNQKQWQSKRKSECINQNPAASSNHWQIPELARKVNTEQKHTTFEQPVFSVSKQSPPISTSKWFDPKSICKTPSSNTLDDYMSCFRTPVVKNDFPPACQLSTPYGQPACFQQQQHQILATPLQNLQVLASSSANECISVKGRIYSILKQIGSGGSSKVFQVLNEKKQIYAIKYVNLEEADNQTLDSYRNEIAYLNKLQQHSDKIIRLYDYEITDQYIYMVMECGNIDLNSWLKKKKSIDPWERKSYWKNMLEAVHTIHQHGIVHSDLKPANFLIVDGMLKLIDFGIANQMQPDTTSVVKDSQVGTVNYMPPEAIKDMSSSRENGKSKSKISPKSDVWSLGCILYYMTYGKTPFQQIINQISKLHAIIDPNHEIEFPDIPEKDLQDVLKCCLKRDPKQRISIPELLAHPYVQIQTHPVNQMAKGTTEEMKYVLGQLVGLNSPNSILKAAKTLYEHYSGGESHNSSSSKTFEKKRGKK
B4: STK22D(TSSK1) (protein)
chain: MDDAAVLKRRGYLLGINLGEGSYAKVKSAYSERLKFNVAIKIIDRKKAPADFLEKFLPREIEILAMLNHCSIIKTYEIFETSHGKVYIVMELAVQGDLLELIKTRGALHEDEARKKFHQLSLAIKYCHDLDVVHRDLKCDNLLLDKDFNIKLSDFSFSKRCLRDDSGRMALSKTFCGSPAYAAPEVLQGIPYQPKVYDIWSLGVILYIMVCGSMPYDDSNIKKMLRIQKEHRVNFPRSKHLTGECKDLIYHMLQPDVNRRLHIDEILSHCWMQPKARGSPSVAINKEGESSRGTEPLWTPEPGSDKKSATKLEPEGEAQPQAQPETKPEGTAMQMSRQSEILGFPSKPSTMETEEGPPQQPPETRAQ
B5: TAOK3(JIK) (protein)
chain: MRKGVLKDPEIADLFYKDDPEELFIGLHEIGHGSFGAVYFATNAHTSEVVAIKKMSYSGKQTHEKWQDILKEVKFLRQLKHPNTIEYKGCYLKEHTAWLVMEYCLGSASDLLEVHKKPLQEVEIAAITHGALHGLAYLHSHALIHRDIKAGNILLTEPGQVKLADFGSASMASPANSFVGTPYWMAPEVILAMDEGQYDGKVDIWSLGITCIELAERKPPLFNMNAMSALYHIAQNDSPTLQSNEWTDSFRRFVDYCLQKIPQERPTSAELLRHDFVRRDRPLRVLIDLIQRTKDAVRELDNLQYRKMKKILFQETRNGPLNESQEDEEDSEHGTSLNREMDSLGSNHSIPSMSVSTGSQSSSVNSMQEVMDESSSELVMMHDDESTINSSSSVVHKKDHVFIRDEAGHGDPRPEPRPTQSVQSQALHYRNRERFATIKSASLVTRQIHEHEQENELREQMSGYKRMRRQHQKQLIALENKLKAEMDEHRLKLQKEVETHANNSSIELEKLAKKQVAIIEKEAKVAAADEKKFQQQILAQQKKDLTTFLESQKKQYKICKEKIKEEMNEDHSTPKKEKQERISKHKENLQHTQAEEEAHLLTQQRLYYDKNCRFFKRKIMIKRHEVEQQNIREELNKKRTQKEMEHAMLIRHDESTRELEYRQLHTLQKLRMDLIRLQHQTELENQLEYNKRRERELHRKHVMELRQQPKNLKAMEMQIKKQFQDTCKVQTKQYKALKNHQLEVTPKNEHKTILKTLKDEQTRKLAILAEQYEQSINEMMASQALRLDEAQEAECQALRLQLQQEMELLNAYQSKIKMQTEAQHERELQKLEQRVSLRRAHLEQKIEEELAALQKERSERIKNLLERQEREIETFDMESLRMGFGNLVTLDFPKEDYR
B6: TAOK2(TAO1) (protein)
chain: MPAGGRAGSLKDPDVAELFFKDDPEKLFSDLREIGHGSFGAVYFARDVRNSEVVAIKKMSYSGKQSNEKWQDIIKEVRFLQKLRHPNTIQYRGCYLREHTAWLVMEYCLGSASDLLEVHKKPLQEVEIAAVTHGALQGLAYLHSHNMIHRDVKAGNILLSEPGLVKLGDFGSASIMAPANSFVGTPYWMAPEVILAMDEGQYDGKVDVWSLGITCIELAERKPPLFNMNAMSALYHIAQNESPVLQSGHWSEYFRNFVDSCLQKIPQDRPTSEVLLKHRFVLRERPPTVIMDLIQRTKDAVRELDNLQYRKMKK
B7: STK17A(DRAK1) (protein)
chain: MIPLEKPGSGGSSPGATSGSGRAGRGLSGPCRPPPPPQARGLLTEIRAVVRTEPFQDGYSLCPGRELGRGKFAVVRKCIKKDSGKEFAAKFMRKRRKGQDCRMEIIHEIAVLELAQDNPWVINLHEVYETASEMILVLEYAAGGEIFDQCVADREEAFKEKDVQRLMRQILEGVHFLHTRDVVHLDLKPQNILLTSESPLGDIKIVDFGLSRILKNSEELREIMGTPEYVAPEILSYDPISMATDMWSIGVLTYVMLTGISPFLGNDKQETFLNISQMNLSYSEEEFDVLSESAVDFIRTLLVKKPEDRATAEECLKHPWLTQSSIQEPSFRMEKALEEANALQEGHSVPEINSDTDKSETKESIVTEELIVVTSYTLGQCRQSEKEKMEQKAISKRFKFEEPLLQEIPGEFIY

Target: T1, Bovine, dephosphorylated, Myelin Basic …

Protein	MBP Kinase Activity
B1	Negative
B2	Strong
B3	Negative
B4	Strong
B5	Strong
B6	Strong
B7	Negative
